T1: Biotinyl-EACA-EACA-Gly-Leu-Met-Val-Gly-Gly-Val-Val-Arg-OH
T1 chain: GLMVGGVVR


Biological target: T1, Biotinyl-EACA-EACA-Gly-Leu-Met-Val-Gly-G …

Protein | Km | Km (37° C.) | Km (room temperature)
activated thrombin-activatable fibrinolysis inhibitor (human TAFIa) (protein) ASASYYEQYHSLNEIYSWIEFITERHPDMLTKIHIGSSFEKYPLYVLKVSGKEQAAKNAIWIDCGIHAREWISPAFCLWFIGHITQFYGIIGQYTNLLRLVDFYVMPVVNVDGYDYSWKKNRMWRKNRSFYANNHCIGTDLNRNFASKHWCEEGASSSSCSETYCGLYPESEPEVKAVASFLRRNINQIKAYISMHSYSQHIVFPYSYTRSKSKDHEELSLVASEAVRAIEKISKNTRYTHGHGSETLYLAPGGGDDWIYDLGIKYSFTIELRDTGTYGFLLPERYIKPTCREAFAAVSKIAWHVIRNV | Values of Km for TAFIa and CPB were 8 and 12 µM, respectively |  | 
human carboxypeptidase B (protein) ATGHSYEKYNKWETIEAWTQQVATENPALISRSVIGTTFEGRAIYLLKVGKAGQNKPAIFMDCGFHAREWISPAFCQWFVREAVRTYGREIQVTELLDKLDFYVLPVLNIDGYIYTWTKSRFWRKTRSTHTGSSCIGTDPNRNFDAGWCEIGASRNPCDETYCGPAAESEKETKALADFIRNKLSSIKAYLTIHSYSQMMIYPYSYAYKLGENNAELNALAKATVKELASLHGTKYTYGPGATTIYPAAGGSDDWAYDQGIRYSFTFELRDTGRYGFLLPESQIRATCEETFLAIKYVASYVLEHLY | Values of Km for TAFIa and CPB were 8 and 12 µM, respectively |  | 
human soluble carboxypeptidase M (protein) LDFNYHRQEGMEAFLKTVAQNYSSVTHLHSIGKSVKGRNLWVLVVGRFPKEHRIGIPEFKYVANMHGDETVGRELLLHLIDYLVTSDGKDPEITNLINSTRIHIMPSMNPDGFEAVKKPDCYYSIGRENYNQYDLNRNFPDAFEYNNVSRQPETVAVMKWLKTETFVLSANLHGGALVASYPFDNGVQATGALYSRSLTPDDDVFQYLAHTYASRNPNMKKGDECKNKMNFPNGVTNGYSWYPLQGGMQDYNYIWAQCFEITLELSCCKYPREEKLPSFWNNNKASLIEYIKQVHLGVKGQVFDQNGNPLPNVIVEVQDRKHICPYRTNKYGEYYLLLLPGSYIINVTVPGHDPHITKVIIPEKSQNFSALKKDILLPFQGQLDSIPVSNPSCPMIPLYRNLPDHS |  | the value was much higher (>50 µM) at 37 °C | Km for CPM was 38 µM at room temperature

From US7176008
